# Experimental data as given in patent US9533026B2, “Polypeptide compounds for inhibiting angiogenesis and tumor growth” (VasGene Therapeutics, Inc., priority 2004, dated 2017).
# Read-outs that look alike come from different tables or passages of the source.
# Assays:
# EphrinB2 [1] = biological target: T1, EphrinB2 (Homo sapiens, UniProt P52799); assay: Ephrin B2-AP binding to immobilized EphB4EC proteins; conditions: B4 proteins immobilized on Ni2+-resin or nitrocellulose
# T1 construct: protein fusion of Ephrin B2 ectodomain with placental alkaline phosphatase
# T1 sequence (P52799 28-229 limits assumed): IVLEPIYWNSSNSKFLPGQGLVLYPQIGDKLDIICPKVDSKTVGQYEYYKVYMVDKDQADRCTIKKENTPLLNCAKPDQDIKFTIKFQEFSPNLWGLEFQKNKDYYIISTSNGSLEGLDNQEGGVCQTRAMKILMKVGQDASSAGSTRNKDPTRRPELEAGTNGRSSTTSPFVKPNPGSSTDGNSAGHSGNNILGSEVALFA
# Protocol: 10 μl of Ni-NTA-Agarose were incubated in microcentrifuge tubes with 50 μl of indicated amount of B4ECv3 diluted in binding buffer BB (20 mM Tris-HCl, 0.15 M NaCl, 0.1% bovine serum albumin pH 8) After incubation for 30 min on shaking platform, Ni-NTA beads were washed twice with 1.4 ml of BB, followed by application of 50 μl of B2-AP in the final concentration of 50 nM. Binding was performed for 30 min on shaking platform, and then tubes were centrifuged and washed one time with 1.4 ml of BB. Amount of precipitated AP was measured colorimetrically after application of PNPP.
# To confirm ability of the purified recombinant proteins to bind Ephrin B2, they were tested in an in vitro binding assay. As expected, GC, GCF1 and GCF2, but not CF2 are binding the cognate ligand Ephrin B2 as confirmed by interaction between Ephrin B2-alkaline phosphatase (Ephrin B2-AP) fusion protein with the B4 proteins immobilized on Ni^2+-resin or on nitrocellulose membrane (FIG. 17).
# EphB4 receptor = assay: Cell-based EphB4 tyrosine kinase assay in PC3 cells; design: species or system human; conditions: Ephrin B2-Fc ligand preincubated with protein
# Protocol: All four proteins were also tested for their ability to block ligand-dependent dimerization and activation of Eph B4 receptor kinase in PC3 cells. The PC3 human prostate cancer cell line is known to express elevated levels of human Eph B4. Stimulation of PC3 cells with Ephrin B2 IgG Fc fusion protein leads to a rapid induction of tyrosine phosphorylation of the receptor. However, preincubation of the ligand with GCF2, GCF1 or GC, but not CF2 proteins suppresses subsequent EphB4 autophosphorylation.
# The human prostate carcinoma cell line PC3 cells were maintained in RPMI medium with 10% dialyzed fetal calf serum and 1% penicillin/streptomycin/neomycin antibiotics mix. Cells were maintained at 37° C. in a humidified atmosphere of 5% CO2/95% air. Typically, cells were grown in 60 mm dishes until confluency and were either treated with mouse Ephrin B2-Fc fusion at 1 μg/ml in RPMI for 10 min to activate EphB4 receptor or plain medium as a control. To study the effect of different derivatives of soluble EphB4 ECD proteins on EphB4 receptor activation, three sets of cells were used. In the first set, cells were treated with various proteins (5 proteins; GC, GCF1, GCF2, GCF2-F, CF2) at 5 μg/ml for 20 min. In the second set of cells, prior to application, proteins were premixed with ephrinB2-Fc at 1:5 (EphB4 protein:B2-Fc) molar ratio, incubated for 20 min and applied on cells for 10 min. In the third set of cells, cells were first treated with the proteins for 20 min at 5 μg/ml, media was replaced with fresh media containing 1 μg/ml of EphrinB2-Fc and incubated for another 10 min.
# After the stimulation, cells were immediately harvested with protein extraction buffer containing 20 mM Tris-HCl, pH 7.4, 150 mM NaCl, 1% (v/v) Triton X100, 1 mM EDTA, 1 mM PMSF, 1 mM Sodium vanadate. Protein extracts were clarified by centrifugation at 14,000 rpm for 20 min at 4° C. Clarified protein samples were incubated overnight with protein A/G coupled agarose beads pre-coated with anti-EphB4 monoclonal antibodies. The IP complexes were washed twice with the same extraction buffer containing 0.1% Triton X100. The immunoprecipitated proteins were solubilized in 1×SDS-PAGE sample loading buffer and separated on 10% SDS-PAGE. For EphB4 receptor activation studies, electroblotted membrane was probed with anti-pTyr specific antibody 4G10 at 1:1000 dilution followed by Protein G-HRP conjugate at 1:5000 dilutions.
# [2] = In vitro stability in mouse serum (retained B2-AP binding); type: in vitro ADME
# Protocol: Both soluble EphB4 ectodomain protein (sB4) and EphB4 ectodomain fused to HSA (HSA-sB4) were biotin labeled through carbohydrate chains using sodium meta-periodate as an oxidant and EZ-Link Biotin Hydrazide (PIERCE, Cat. #21339) according to manufacture's protocol. The in vitro stability of the biotinylated sB4 protein was tested by incubating […] with 40 μL of mouse serum at 37° C. for 0, 0.5, 1, 2 and 3 days. Two μL of magnetic beads and B2-AP was added for an extra hour at room temperature. After washing twice with buffer, pnPP was added for 1 hour.
# The fractions were also tested for their stability in vitro. The fractions were tested for retention of EphrinB2 binding activity after incubation in mouse serum at 37° C. for three days.
# EphrinB2 [3] = biological target: T1, EphrinB2; assay: EphrinB2 (B2-AP) binding assay on affinity magnetic beads; conditions: SP column fractions 1, 2 and 3
# Text: To test whether the B4-HSA fusion property retained the ability of the EphB4 extracellular domain to bind to EphrinB2, the ability of the purified B4-HSA fusion was compared to that of GCF2F, GCF2, GC, CF and B4-Fc fusion, which comprises the extracellular domain of B4 fused to hIgG1 Fc as described in Example 1. Biotinylated or His-tag protein samples were inoculated with the corresponding affinity magnetic beads and B2-AP for an hour at room temperature, before addition of PnPP. Results of binding assays are shown on FIG. 67.
# Fractions 1, 2 and 3 of biotinylated and PEGylated sB4 from the SP column purification, corresponding to polypegylated, monopegylated and unpegylated biotinylated sB4, were tested for their ability to bind EphrinB2 using the standard assay. Results of this experiment are shown on FIG. 72.
# [4] = retention of EphrinB2 binding, mouse serum, 37° C., three days
Molecule,binding the cognate ligand Ephrin B2 (EphrinB2 [1]),EphB4 autophosphorylation (EphB4 receptor),B2 binding activity lost [2],order of in vitro stability [2],order of binding activity (EphrinB2 [3]),"order of in vitro stability [2, 4]"
"GCF2: recombinant protein containing the complete ectopic part of EphB4, 6xHis tagged, SEQ ID NO:14 (protein, Recombinant FL-hB4EC) MELRVLLCWASLAAALEETLLNTKLETADLKWVTFPQVDGQWEELSGLDEEQHSVRTYEVCEVQRAPGQAHWLRTGWVPRRGAVHVYATLRFTMLECLSLPRAGRSCKETFTVFYYESDADTATALTPAWMENPYIKVDTVAAEHLTRKRPGAEATGKVNVKTLRLGPLSKAGFYLAFQDQGACMALLSLHLFYKKCAQLTVNLTRFPETVPRELVVPVAGSCVVDAVPAPGPSPSLYCREDGQWAEQPVTGCSCAPGFEAAEGNTKCRACAQGTFKPLSGEGSCQPCPANSHSNTIGSAVCQCRVGYFRARTDPRGAPCTTPPSAPRSVVSRLNGSSLHLEWSAPLESGGREDLTYALRCRECRPGGSCAPCGGDLTFDPGPRDLVEPWVVVRGLRPDFTYTFEVTALNGVSSLATGPVPFEPVNVTTDREVPPAVSDIRVTRSSPSSLSLAWAVPRAPSGAWLDYEVKYHEKGAEGPSSVRFLKTSENRAELRGLKRGASYLVQVRARSEAGYGPFGQEHHSQTQLDESEGWREQGSKRAILQIEGKPIPNPLLGLDSTRTGHHHHHH",binding,suppresses,,,,
"CF2: EphB4 ECD version with deleted globular domain, SEQ ID NO:15 (protein, Recombinant B4-CF2) MELRVLLCWASLAAALEETLLNTKLETQLTVNLTRFPETVPRELVVPVAGSCVVDAVPAPGPSPSLYCREDGQWAEQPVTGCSCAPGFEAAEGNTKCRACAQGTFKPLSGEGSCQPCPANSHSNTIGSAVCQCRVGYFRARTDPRGAPCTTPPSAPRSVVSRLNGSSLHLEWSAPLESGGREDLTYALRCRECRPGGSCAPCGGDLTFDPGPRDLVEPWVVVRGLRPDFTYTFEVTALNGVSSLATGPVPFEPVNVTTDREVPPAVSDIRVTRSSPSSLSLAWAVPRAPSGAWLDYEVKYHEKGAEGPSSVRFLKTSENRAELRGLKRGASYLVQVRARSEAGYGPFGQEHHSQTQLDESEGWREQGGRSSLEGPRFEGKPIPNPLLGLDSTRTGHHHHHH",not,not,,,,
"sB4: soluble EphB4 ectodomain protein, biotin labeled through carbohydrate chains; SP column fraction 3 (protein) LEETLLNTKLETADLKWVTFPQVDGQWEELSGLDEEQHSVRTYEVCDVQRAPGQAHWLRTGWVPRRGAVHVYATLRFTMLECLSLPRAGRSCKETFTVFYYESDADTATALTPAWMENPYIKVDTVAAEHLTRKRPGAEATGKVNVKTLRLGPLSKAGFYLAFQDQGACMALLSLHLFYKKCAQLTVNLTRFPETVPRELVVPVAGSCVVDAVPAPGPSPSLYCREDGQWAEQPVTGCSCAPGFEAAEGNTKCRACAQGTFKPLSGEGSCQPCPANSHSNTIGSAVCQCRVGYFRARTDPRGAPCTTPPSAPRSVVSRLNGSSLHLEWSAPLESGGREDLTYALRCRECRPGGSCAPCGGDLTFDPGPRDLVEPWVVVRGLRPDFTYTFEVTALNGVSSLATGPVPFEPVNVTTDREVPPAVSDIRVTRSSPSSLSLAWAVPRAPSGAVLDYEVKYHEKGAEGPSSVRFLKTSENRAELRGLKRGASYLVQVRARSEAGYGPFGQEHHSQTQLDESEGWREQLA",,,less than 10%,monopegylated>unpegylated>polypegylated,Unpegylated>monopegylated>polypegylated,
"monopegylated: fraction 2: monopegylated biotinylated sB4, linear PEG-succinimidyl propionate of about 20 kda (conjugate) LEETLLNTKLETADLKWVTFPQVDGQWEELSGLDEEQHSVRTYEVCDVQRAPGQAHWLRTGWVPRRGAVHVYATLRFTMLECLSLPRAGRSCKETFTVFYYESDADTATALTPAWMENPYIKVDTVAAEHLTRKRPGAEATGKVNVKTLRLGPLSKAGFYLAFQDQGACMALLSLHLFYKKCAQLTVNLTRFPETVPRELVVPVAGSCVVDAVPAPGPSPSLYCREDGQWAEQPVTGCSCAPGFEAAEGNTKCRACAQGTFKPLSGEGSCQPCPANSHSNTIGSAVCQCRVGYFRARTDPRGAPCTTPPSAPRSVVSRLNGSSLHLEWSAPLESGGREDLTYALRCRECRPGGSCAPCGGDLTFDPGPRDLVEPWVVVRGLRPDFTYTFEVTALNGVSSLATGPVPFEPVNVTTDREVPPAVSDIRVTRSSPSSLSLAWAVPRAPSGAVLDYEVKYHEKGAEGPSSVRFLKTSENRAELRGLKRGASYLVQVRARSEAGYGPFGQEHHSQTQLDESEGWREQLA",,,,,Unpegylated>monopegylated>polypegylated,monopegylated>unpegylated>polypegylated
"polypegylated: fraction 1: polypegylated biotinylated sB4, linear PEG-succinimidyl propionate of about 20 kda (conjugate) LEETLLNTKLETADLKWVTFPQVDGQWEELSGLDEEQHSVRTYEVCDVQRAPGQAHWLRTGWVPRRGAVHVYATLRFTMLECLSLPRAGRSCKETFTVFYYESDADTATALTPAWMENPYIKVDTVAAEHLTRKRPGAEATGKVNVKTLRLGPLSKAGFYLAFQDQGACMALLSLHLFYKKCAQLTVNLTRFPETVPRELVVPVAGSCVVDAVPAPGPSPSLYCREDGQWAEQPVTGCSCAPGFEAAEGNTKCRACAQGTFKPLSGEGSCQPCPANSHSNTIGSAVCQCRVGYFRARTDPRGAPCTTPPSAPRSVVSRLNGSSLHLEWSAPLESGGREDLTYALRCRECRPGGSCAPCGGDLTFDPGPRDLVEPWVVVRGLRPDFTYTFEVTALNGVSSLATGPVPFEPVNVTTDREVPPAVSDIRVTRSSPSSLSLAWAVPRAPSGAVLDYEVKYHEKGAEGPSSVRFLKTSENRAELRGLKRGASYLVQVRARSEAGYGPFGQEHHSQTQLDESEGWREQLA",,,,,Unpegylated>monopegylated>polypegylated,monopegylated>unpegylated>polypegylated
